US20190315842A1 (DUKE UNIVERSITY, published 2019)
“And” between values parts separate entries of the source, which are not always exact repeats. Identical values can stand only once. Each block holds one binder with its values, some of them ahead of it.

What was measured:
[1] = target: T1, 15-mer peptide GPPPPIDNGDITSFP (SEQ ID NO: 114) (human); assay: SPR (BIAcore), mAb at 25, 50 or 100 nM over immobilized 15-mer peptide
T1 construct: Immobilized for SPR; also called parent peptide
T1 peptide: GPPPPIDNGDITSFP

[2] = target: T2, systemic lupus erythematosus autoantigen SSB (UniProt P05455 1-408, limits assumed); assay: AtheNA Multi-Lyte ANA, Ab at 25 ug/ml
T2 sequence (looked up): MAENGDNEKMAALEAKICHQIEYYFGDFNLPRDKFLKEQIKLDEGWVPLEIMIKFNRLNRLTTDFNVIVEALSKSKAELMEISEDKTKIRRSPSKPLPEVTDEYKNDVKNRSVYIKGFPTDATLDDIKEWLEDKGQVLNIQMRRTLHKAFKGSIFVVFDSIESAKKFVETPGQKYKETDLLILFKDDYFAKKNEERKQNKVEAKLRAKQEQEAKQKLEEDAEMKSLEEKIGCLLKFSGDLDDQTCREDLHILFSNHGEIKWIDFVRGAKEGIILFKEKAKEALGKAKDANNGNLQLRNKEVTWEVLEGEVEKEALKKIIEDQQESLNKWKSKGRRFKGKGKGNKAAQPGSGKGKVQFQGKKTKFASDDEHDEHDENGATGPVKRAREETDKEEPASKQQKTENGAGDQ

Sm (sphingomyelin) = target: T3, Sm (sphingomyelin); assay: AtheNA Multi-Lyte ANA, Ab at 25 ug/ml
T3 construct: in an ANA panel of nuclear antigens Sm is usually the Smith ribonucleoprotein antigen; Kept, but see recheck

[3] = target: T4, histidine-tRNA ligase (Jo-1) (UniProt P12081 2-509); assay: AtheNA Multi-Lyte ANA, Ab at 25 ug/ml
T4 sequence (looked up): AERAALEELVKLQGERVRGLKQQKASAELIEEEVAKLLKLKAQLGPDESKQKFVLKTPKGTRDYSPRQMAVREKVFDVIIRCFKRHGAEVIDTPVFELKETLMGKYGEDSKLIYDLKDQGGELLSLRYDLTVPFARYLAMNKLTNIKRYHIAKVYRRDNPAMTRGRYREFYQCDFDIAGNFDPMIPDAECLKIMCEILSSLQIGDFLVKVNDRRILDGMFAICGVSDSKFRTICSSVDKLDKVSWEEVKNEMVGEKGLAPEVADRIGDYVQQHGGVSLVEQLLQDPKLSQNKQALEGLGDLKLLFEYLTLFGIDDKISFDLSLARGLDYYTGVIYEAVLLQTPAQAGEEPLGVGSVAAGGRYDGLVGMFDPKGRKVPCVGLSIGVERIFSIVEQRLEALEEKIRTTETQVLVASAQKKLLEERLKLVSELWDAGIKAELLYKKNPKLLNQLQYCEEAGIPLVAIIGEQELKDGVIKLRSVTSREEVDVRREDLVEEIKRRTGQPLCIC

ribonucleoprotein (RNP) = assay: AtheNA Multi-Lyte ANA, Ab at 25 ug/ml
[4] = target: T5, reduced form of Complement Factor H (CFH), treated with TCEP (human, UniProt P08603 19-1231, disulfides reduced with 10 mM TCEP); assay: immunoblot, SDS-PAGE under reducing conditions, anti-human IgG-HRP, chemiluminescence; lane numbers as in Table 10
T5 construct: also called reduced CFH; reduced form of CFH

[5] = target: T6, reduced SCR19-20 (human CFH short consensus repeat domains 19 and 20, reduced) (human, UniProt P08603 1107-1231, disulfides reduced with TCEP or reducing SDS-PAGE); assay: as above
T6 construct: domain: SCR19-20; Same construct as m3, reduced
T6 sequence (looked up): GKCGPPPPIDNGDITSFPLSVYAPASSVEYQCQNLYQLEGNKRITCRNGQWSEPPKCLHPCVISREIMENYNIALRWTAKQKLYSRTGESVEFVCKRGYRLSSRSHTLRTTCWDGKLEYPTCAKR

[6] = target: T7, Complement Factor H (CFH) protein, full-length (human, UniProt P08603 19-1231); assay: immunoblot, SDS-PAGE under non-reducing conditions, anti-human IgG-HRP, chemiluminescence; lane numbers as in Table 10
T7 construct: also called full-length CFH; native CFH

[7] = target: T7, Complement Factor H (CFH) protein, …; assay: immunoblot, SDS-PAGE under non-reducing conditions, antibody at 0.5 µg/ml, anti-human IgG-HRP, chemiluminescence; lane numbers as in Table 10
[8] = target: T5, reduced form of Complement Factor H …; assay: immunoblot, SDS-PAGE under reducing conditions, antibody at 0.5 µg/ml, anti-human IgG-HRP, chemiluminescence; lane numbers as in Table 10
centromere B (CentB) = target: T8, centromere B (CentB) (UniProt P07199 2-599); assay: AtheNA Multi-Lyte ANA, Ab at 25 ug/ml
T8 sequence (looked up): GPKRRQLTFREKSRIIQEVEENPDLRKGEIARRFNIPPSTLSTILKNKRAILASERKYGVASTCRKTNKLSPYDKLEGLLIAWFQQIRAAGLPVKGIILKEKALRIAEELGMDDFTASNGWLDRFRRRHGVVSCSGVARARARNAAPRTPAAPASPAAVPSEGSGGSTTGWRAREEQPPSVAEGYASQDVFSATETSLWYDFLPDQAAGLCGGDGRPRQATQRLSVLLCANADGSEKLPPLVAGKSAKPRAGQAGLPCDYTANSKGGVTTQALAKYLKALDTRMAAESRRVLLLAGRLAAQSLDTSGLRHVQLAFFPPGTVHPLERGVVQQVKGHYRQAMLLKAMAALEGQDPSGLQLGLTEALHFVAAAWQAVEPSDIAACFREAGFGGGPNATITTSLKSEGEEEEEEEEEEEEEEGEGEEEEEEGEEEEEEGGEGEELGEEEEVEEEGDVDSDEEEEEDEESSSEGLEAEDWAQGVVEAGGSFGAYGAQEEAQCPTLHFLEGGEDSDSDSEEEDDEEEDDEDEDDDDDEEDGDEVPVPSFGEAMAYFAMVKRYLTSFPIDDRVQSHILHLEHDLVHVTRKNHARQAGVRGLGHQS

- Kd [1]: ~2.5 pM and 2.46 pM
- koff [1]: 5.56e-07 s⁻¹
- kon [1]: 226000 M⁻¹ s⁻¹
- AtheNA signal [2]: 8
- AtheNA signal (Sm (sphingomyelin)): 5
- AtheNA signal [3]: 3
- AtheNA signal (ribonucleoprotein (RNP)): 8
B1: Ab7968 (antibody, IgG1, V domains shown)
VH: LVESGGGVVQPGRSLRLSCAASGFTFSRYGMHWVRQAPGKGLEWVAVMSYDGSTKYYADSVKGRFAISRDNPKNTLFLQMNSLRPDDTAVYYCAKGGAAAAVMDVWGKGTTVTVSS
VL: MTQSPDSLTVSLGERATISCKSSQRLLYSSNNKNYLAWYQQKPGQPPKLLMYWASTRESGVPDRFSGSGSGTDFSLTISSLQAEDVAVYYCQQYYNPPWTFGQGTKVEVK
notes: Recombinant human antibody with IgG1 heavy chain backbone and kappa light chain constant; they begin at LVESGGG and MTQSP; also called mAb 7968; mAb7968

- binding result [4]: no binding (tested: 0.5 µg/ml)
- binding result [5]: no binding (tested: 0.5 µg/ml)
- binding result [6]: no binding (tested: 0.5 µg/ml)
B2: Ab7962/293i (antibody, V domains shown)
VH: LVESGGGLVQPGGSLRLSCAASGFTFSSYEMNWVRQAPGKGLEWVSYISSSGSTIYYADSVKGRFTISRDNAKNSLYLQMNSLRAEDTAVYYCARVEQLAPSPYMDVWGKGTTVTVSS
VL: MTQSLDSLTVSLGERATINCKSSQSLLYTSNNKNYLAWYQQKSGQPPKLLIYWASIRDSGVPDRFSGSGSATDFTLTINNLQAEDVAVYFCQQYYKTPLTFGGGTKVEVR
notes: Recombinant human antibody with IgG1 heavy chain backbone and kappa light chain constant (IgM in the donor B cell); they begin at LVESGGG and MTQSL; also called clone 27; pH007962/pK005996

- binding result [7]: binds
- binding result [8]: binds
- AtheNA signal (Sm (sphingomyelin)): 3
- AtheNA signal [3]: 4
- AtheNA signal (ribonucleoprotein (RNP)): 4
- AtheNA signal (centromere B (CentB)): 2
B3: Ab7957/293i (antibody, IgG1, V domains shown)
VH: LVESGGGVVPPGKSLRLSCAASGFTFSLYGIHWVRQAPGKGLEWVAVISYDGNTKYYTDSVKGRFTISRDNAKNTIYLQMNSLRLDDTAVYYCAKGAANSATFDFWGRGTMVTVSS
VL: MTQSPDSLTLSLGERATINCRSSRTVLYRSNNKNYLAWYQHKPGQPPKLLMSWASTRETGVPDRFSGSGSGTHFTLTITSLQPEDVAVYYCQQYYSPPWTFGQGTKVEIR
notes: Recombinant human antibody with IgG1 heavy chain backbone and kappa light chain constant; they begin at LVESGGG and MTQSP; also called Ab7957i; mAb 7957
